Reference: patent US20040258659A1 (UNIVERSITE PIERRE ET MARIE CURIE PARIS VI, published 2004)
Numbering of substitutions follows the chain as printed.

B1: LSPVSSQSSA-RANTES (10-68) (P1) (ligand, human)
chain: LSPVSSQSSACCFAYIARPLPRAHIKEYFYTSGKCSNPAVVFVTRKNRQVCANPEKKWVREYINSLEMS
notes: range 33-91; Made by total chemical synthesis; The range 10-68 counts on mature RANTES, not on the precursor; also called mutant P1; variant P1
B2: FSPLSSQSSA-RANTES (10-68) (P2) (ligand, human)
chain: B1 chain with L1F, V4L
notes: range 33-91; Made by total chemical synthesis; The range 10-68 counts on mature RANTES, not on the precursor; also called mutant P2; RANTES P2

Tests used:
CCR5 [1] = biological target: T1, CCR5 (UniProt P51681 1-352, limits assumed); assay: cell-based or functional assay
CCR5 [2] = biological target: T1, CCR5; assay: competitive radioligand binding on whole CHO-CCR5 cells at 4 C, 12 pM [125I]MIP-1α tracer
Method: Assays were carried out essentially as (11). CHO—CCR5 cells were seeded into 24 well plates (8×10⁴ cells/well). […] After incubation, cells were washed, lysed, and the lysaes counted using a Beckman Gamma 4000 scintillation counter. Determinations were performed in duplicate and IC₅₀ values derived from monophasic curves (competition binding; one-site) fitted using Prism software (GraphPad).

T1 sequence (P51681 whole entry): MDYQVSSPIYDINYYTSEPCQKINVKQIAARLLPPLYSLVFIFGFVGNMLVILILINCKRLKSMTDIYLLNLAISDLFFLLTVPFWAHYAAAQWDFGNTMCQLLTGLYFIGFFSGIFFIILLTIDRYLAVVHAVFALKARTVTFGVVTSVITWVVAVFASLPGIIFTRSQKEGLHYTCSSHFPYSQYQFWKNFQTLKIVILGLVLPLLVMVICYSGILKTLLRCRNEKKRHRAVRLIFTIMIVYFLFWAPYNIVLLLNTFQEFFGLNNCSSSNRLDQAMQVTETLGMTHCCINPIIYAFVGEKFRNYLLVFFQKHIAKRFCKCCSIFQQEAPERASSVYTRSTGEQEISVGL

Binder	IC50, R5-tropic envelope-mediated cell fusion assay (CCR5 [1]) [nM]	IC50 (CCR5 [2]) [nM]
B1	7	0.3
B2	0.6	0.2
